From US9885713B2, “Diagnosis and treatment of mycobacteria infections” (priority 2013, dated 2018)
Entries after “also recorded” stand apart in the source; their conditions may differ.

B1: Gp10: recombinant His-tagged lysin Gp10 of mycobacteriophage L5 (SEQ ID NO: 3) (protein)
chain: MHHHHHHSSGLVPRGSGMKETAAAKFERQHMDSPDLGTDDDDKAMADIGSEFMTFTVTRERAQWVHDMARARDGLPYAYGGAFTNNPRVSTDCSGLVLQTGAWYGGRTDWVGNRYGSTESFRLDHKIVYDLGFKRMPRGGPAALPIKPVMLVGLQHGGGGVYSHTACTLMTMDHPGGPVKMSDRGVDWESHGNRNGVGVELYEGARAWNDPLFHDFWYLDAVLEDEGDDDELADPVLGKMIREIHACLFNQTASTSDLATPGEGAIWQLHQKIHSIDGMLHPIHAERRARAGDLGELHRIVLAAKGLGVKRDEVTKRVYQSILADIERDNPEVLQRYIAERGGL
modifications: His6 tag
B2: Gp6: recombinant His-tagged minor tail protein Gp6 of mycobacteriophage L5 (SEQ ID NO: 1) (protein)
chain: MHHHHHHSSGLVPRGSGMKETAAAKFERQHMDSPDLGTDDDDKAMADIGSEFMADLGNPLDLEMLCLVTGRDFRWTIDYPWGPGELFLELETGGEHNALHQVYVTGATGGTYTLNVNGTNTPAIDYNDVSENPQGLAGDIQDALDAAVGAGNAVVHPVSLFPAWTLNFNLNASKPLTEQLVNTINKAANDFFDTFDQLLGVDVEMTVTDTLNFKLKVTSRRSFDEVGVVTFAVDVTSQAVINFFNSVAELTGAVNTVNVDFYWNRTYDIEFTGSLGLQPIPATTADITNLAGTSKAVSVTVVEPGKKRLTIWPFTVNGETATIKVESEEADKIPNRCRWQLVHMPTGEAAGGDAKQLGRVYRQPR
modifications: His6 tag

Legend:
[1] = tested on: Mycobacterium avium subsp. paratuberculosis ATCC 19851; test: Cell binding assay: protein immobilized on gold surface, capture by SEM and fluorescence microscopy; conditions: for capture/binding of MAP cells (in words): protein immobilized on gold surface, 20 μg/ml (Gp6 also 40 μg/ml)
Excerpt: (§1) In order to assess mycophage and mycophage RBPs for their use as probes of MAP infection, Gp-10 and Gp-6 were immobilized using an established protocol (Singh et. al. Biosens. Bioelect. 26 131 (2010) and used for the specific bacterial capture. Gold Surfaces were modified by cysteamine hydrochloride followed by activation using 2% gluteraldehyde. The recombinant proteins Gp-10, Gp-6 and Gp-31 were immobilized over the surfaces in order to capture the host bacteria Mycobacterium avium subsp. paratuberculosis ATCC 19851 and Mycobacterium smegmatis mc^2155. Bacterial capture was confirmed by fluorescence microscopy and Scanning Electron Microscopy (SEM). Nonspecific attachment was prevented by using bovine serum albumin (BSA) as the blocking layer. A negative control was run in parallel where a similar gold surface was treated with all reagents, but they were not exposed to the recombinant phage proteins.
(§2) Proteins were immobilized onto cysteamine covered gold surfaces that were activated with glutaraldehyde according to the previously described protocol where RBP samples were used instead of whole phage particles. Briefly, the gold substrates were fabricated using piranha cleaned silicon substrates by sputtering a 25 nm thick gold layer. The gold substrates were sonicated in acetone, isopropanol, ethanol and MilliQ (Millipore) water for 5 min each prior to their use (Branson Ultrasonics 1510, 40 kHz frequency). The gold substrates were incubated overnight at 40° C. in a 50 mM solution of cysteamine hydrochloride (Sigma-Aldrich). The cysteamine self assembled monolayer (SAM) substrates were modified by 2% glutaraldehyde (Sigma-Aldrich) for 1 hr at room temperature and washed twice in PBS. These modified substrates were incubated in a 20 μg/ml solution of Gp10 (or Gp6) in PBS overnight at 60° C. The negative control substrate was incubated in PBS only. To block nonspecific binding of bacteria, the substrates were incubated in 1 mg/ml of bovine serum albumin (Sigma-Aldrich) and were washed twice in PBS. The protein covered substrates were exposed to 10^9 cfu/ml of mycobacterial cells in PBS for 1 hr at room temperature. The immobilized surfaces were washed in 0.05 Tween 20 (Sigma-Aldrich) before analysis. For fluorescence microscopy, the bacterial cells were stained with 50 μM resazurin (Sigma-Aldrich) for 20 min before exposure to the substrates covered with the immobilized proteins.
(§3) Bacterial cell binding to the gold surface covered with the immobilized protein was assessed as described previously. Scanning electron microscopy (SEM) and fluorescent microscopy (FM) were used to estimate the number of bacterial cells bound to the surfaces. The samples were fixed with 2% glutaraldehyde for 2 hrs at room temperature followed by a gradient of ethanol from 50% to 100% before SEM. Finally the samples were dried by nitrogen gas. SEM imaging was performed using a Hitachi S-4800/LEO 1430 microscope. Cells were prestained using 50 μM of resazurin stain (Sigma-Aldrich) for the FM-based binding assay. An Olympus IX81 microscope equipped with a FITC filter and a Roper Scientific Cool-Snaps HQ CCD Camera were Used to Record the FM Images. ImageJ Software (USA NIH) was used to analyze the microscopy images. Average numbers of cells bound to the surface are indicated on the basis of the assessment of the cell number, fields of view, and using 8 gold covered chips per test.

[2] = tested on: Mycobacterium smegmatis mc^2155; test: as above; conditions: for Capture efficiency of M. smegmatis cells: 20 μg/ml protein solution used for immobilization onto gold chip; for bacterial capture: gold surface, 20 μg/ml of RBP, Mycobacterium smegmatis mc^2155; for capture/binding of M. smegmatis cells (in words): protein immobilized on gold surface, 20 μg/ml
Excerpt: as §1, §2, §3

[3] = tested on: M. marinum cells; test: as above; parameters: species or system Mycobacterium marinum
Excerpt: (§4) Mycobacteria phage L5 (HER-386) was obtained from the Felix D'Herelle Reference Centre for Bacterial Viruses (Laval University, Quebec, Canada). Mycobacterium marinum ATCC number 927, M. smegmatis mc^2 155 and M. avium subsp. paratuberculosis ATCC 19851 were used in the binding studies along with Campylobacter jejuni NCTC 11168H, Salmonella enterica subsp. enterica sv. Typhimurium ATCC 19585 and E. coli K-12. E. coli DH5α (Invitrogen) and E. coli BL21(DE3) (Invitrogen) were used for cloning and recombinant protein expression procedures, respectively. All mycobacterial strains were grown in ambient atmosphere. Middlebrook 7H9 (BD Biosciences) broth supplemented with oleic acid-albumin-dextrose catalase (BD Biosciences) and mycobactin J (Allied Monitor Inc.) was used to propagate M. smegmatis at 37° C. for 48 hrs as well as MAP cells at 37° C. for 10 days. […]
(§5) Proteins were immobilized onto cysteamine covered gold surfaces that were activated with glutaraldehyde according to the previously described protocol where RBP samples were used instead of whole phage particles. […] For fluorescence microscopy, the bacterial cells were stained with 50 μM resazurin (Sigma-Aldrich) for 20 min before exposure to the substrates covered with the immobilized proteins.
(§6) Bacterial cell binding to the gold surface covered with the immobilized protein was assessed as described previously. […]

[4] = tested on: E. coli; test: Specificity control on protein covered gold surfaces (non-host bacteria); type: binding, Escherichia coli; conditions: E. coli K12; protein covered gold surface
Excerpt: (§7) The concentrations of the two RBPs of Gp6, Gp-10 and Gp31 were optimized for immobilization. […] The specificity of recognition by the RBPs was confirmed by exposing similar surfaces to E. coli EC12 and Campylobacter jejuni 11168H strains of non-host bacteria.
as §2, with “These modified substrates were incubated in a 20 μg/ml solution of Gp10 (or Gp6) in PBS overnight at 60° C. The negative control substrate was incubated in PBS only. To block nonspecific binding of bacteria, the substrates were incubated in 1 mg/ml of bovine serum albumin (Sigma-Aldrich) and were washed twice in PBS. The protein covered substrates were exposed to 10^9 cfu/ml of mycobacterial cells in PBS for 1 hr at room temperature. The immobilized surfaces were washed in 0.05 Tween 20 (Sigma-Aldrich) before analysis.” left out
as §6

[5] = tested on: Campylobacter jejuni 11168H; test: as above; type: binding; conditions: C. jejuni; protein covered gold surface
Excerpt: as §7
as §2, with “These modified substrates were incubated in a 20 μg/ml solution of Gp10 (or Gp6) in PBS overnight at 60° C. The negative control substrate was incubated in PBS only. To block nonspecific binding of bacteria, the substrates were incubated in 1 mg/ml of bovine serum albumin (Sigma-Aldrich) and were washed twice in PBS. The protein covered substrates were exposed to 10^9 cfu/ml of mycobacterial cells in PBS for 1 hr at room temperature. The immobilized surfaces were washed in 0.05 Tween 20 (Sigma-Aldrich) before analysis.” left out
as §6

[6] = tested on: S. Typhimurium; test: as above; type: binding, Salmonella enterica subsp. enterica sv. Typhimurium; conditions: protein covered gold surface
Excerpt: as §4, §5, §6

[7] = molecular target: T1, peptidoglycan from Bacillus subtilis (Mycobacterium phage L5, UniProt Q05285, I224V/T32I); test: Peptidoglycan binding assay
T1 construct: pET-30a(+) vector-encoded N-terminal leader (additional residues up to the EcoRI site) (N); made in house; host or cells: E. coli BL21(DE3)
Experimental: Dehydrated peptidoglycan from Bacillus subtilis (Sigma-Aldrich) was suspended in water to obtain a 10 mg/ml stock that was stored at −20° C. This stock was diluted further in water to obtain a 1 mg/ml working stock solution that was used in the experiments and was prepared fresh each time. A 0.1 mg/ml sample of Gp10 in PBS was incubated with peptidoglycan at a final concentration of 0.1 mg/ml for 30 min at room temperature with occasional stirring. Then, the peptidoglycan was separated from the protein solution by centrifugation (15 min at 18 000 g at 4° C.), an aliquot of the supernatant was mixed with the SDS-sample buffer and analyzed by SDS-PAGE.

T1 sequence (Q05285 other isoform, or with tags, fused parts or gaps T32I/I224V): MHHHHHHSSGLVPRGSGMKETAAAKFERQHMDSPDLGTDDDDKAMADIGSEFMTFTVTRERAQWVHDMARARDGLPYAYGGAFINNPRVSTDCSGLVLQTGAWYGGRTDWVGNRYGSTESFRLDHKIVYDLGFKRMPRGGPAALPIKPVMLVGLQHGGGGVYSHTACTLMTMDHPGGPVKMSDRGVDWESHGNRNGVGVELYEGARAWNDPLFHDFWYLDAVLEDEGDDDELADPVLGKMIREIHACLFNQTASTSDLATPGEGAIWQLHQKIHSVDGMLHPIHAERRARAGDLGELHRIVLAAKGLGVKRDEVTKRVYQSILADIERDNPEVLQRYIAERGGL

Molecule | bacterial capture ([1]; gold surface, 20 μg/ml of RBP, MAP ATCC 19851) | capture/binding of MAP cells (in words) [1] | Capture efficiency of M. smegmatis cells [2] | bacterial capture [2] | capture/binding of M. smegmatis cells (in words) [2] | capture of M. marinum cells (in words) [3] | bacterial capture of non-host bacteria (in words) [4] | bacterial capture of non-host bacteria (in words) [5] | bacterial capture of non-host bacteria (in words) [6] | peptidoglycan binding (in words) ([7]; Gp10 purified from the soluble fraction, 0.1 mg/ml Gp10, 0.1 mg/ml peptidoglycan, 30 min, SDS-PAGE of supernatant) | peptidoglycan binding (in words) ([7]; refolded sample of Gp10 after 8 M urea extraction) | capture/binding of MAP cells (in words) ([1]; listed as Gp 6) | capture/binding of MAP cells (in words) ([1]; listed as Gp-6)
B1 | 12.3×10^−3 /μm^2 | able to bind; also recorded: specifically bind | 28.7±1.18×10^−3 cells/μm^2 | 28.7×10^−3 /μm^2 | able to bind; also recorded: specifically bind | Neither of the two proteins was able to capture; also recorded: Neither Gp6 nor Gp10 was able to serve as a capturing agent | no bacterial capture | no bacterial capture | no bacterial capture | selectively remove recombinant Gp10 from the solution | retained the ability to bind peptidoglycan | – | –
B2 | – | – | 31.3±1.5×10^−3 cells/μm^2 | 31.3×10^−3 /μm^2 | M. smegmatis specific; also recorded: bind only M. smegmatis cells | Neither of the two proteins was able to capture; also recorded: Neither Gp6 nor Gp10 was able to serve as a capturing agent | no bacterial capture | no bacterial capture | no bacterial capture | – | – | did not capture any MAP cells | not showing any bacterial capture
